Measurements reported in patent US8008547B2, “Glyphosate-N-acetyltransferase (GAT) genes” (E.I. duPont de Nemours, priority 2000, dated 2011).

Experiment: Standard protocol for determination of kcat and KM (continuous spectrophotometric assay, Acetyl CoA hydrolysis at 235 nm)
Format: biochemical
Details: purified protein, about 23° C., 0.2 mM acetyl CoA; for Kcat: 20 mM HEPES pH 6.8, 10% ethylene glycol; for Km: pH 6.8, glyphosate 0.125 to 10 mM
Description: KM was calculated from the initial reaction rates obtained from concentrations of glyphosate ranging from 0.125 to 10 mM, using the Lineweaver-Burke transformation of the Michaelis-Menten equation. kcat/KM was determined by dividing the value determined for kcat by the value determined for KM.
Using this methodology, kinetic parameters for a number of GAT polypeptides exemplified herein were determined. For example, the kcat, KM and kcat/KM for the GAT polypeptide corresponding to SEQ ID NO:445 have been determined to be 322 min^−1, 0.5 mM and 660 mM^−1 min^−1, respectively, using the assay conditions described above. The kcat, KM and kcat/KM for the GAT polypeptide corresponding to SEQ ID NO:457 have been determined to be 118 min^−1, 0.1 mM and 1184 mM^−1 min^−1, respectively, using the assay conditions described above. The kcat, KM and kcat/KM for the GAT polypeptide corresponding to SEQ ID NO:300 have been determined to be 296 min^−1, 0.65 mM and 456 mM^−1 min^−1, respectively, using the assay conditions described above. One of skill in the art can use these numbers to confirm that a GAT activity assay is generating kinetic parameters for a GAT suitable for comparison with the values given herein. For example, the conditions used to compare the activity of GATs should yield the same kinetic constants for SEQ ID NO: 300, 445 and 457 (within normal experimental variance) as those reported herein, when the conditions are used to compare a test GAT with the GAT polypeptides exemplified herein. Kinetic parameters for a number of GAT polypeptide variants were determined according to this methodology and are provided in Table 3.

Row | Molecule | Kcat | Km | Kcat (listed as SEQ ID NO:457) | Kcat (listed as SEQ ID NO:300)
1 | SEQ ID NO: 445: GAT polypeptide (protein, 0_5D3, GAT polypeptide) MLEVKPINAEDTYELRHRILRPNQPIEACMYESDLLRGAFHLGGYYRGKLISIASFHQAEHSELQGQKQYQLRGMATLEGYREQKAGSSLIKHAEEILRKRGADLLWCNARTSASGYYKKLGFSEQGEIFETPPVGPHILMYKRIT | 5.37 s⁻¹ | 500 µM | – | –
2 | SEQ ID NO: 457: GAT polypeptide (protein, 10_4H4, GAT polypeptide) MLEVKPINAEDTYELRHKILRPNQPLEVCMYETDLLRGAFHLGGFYRGKLISIASFHQAEHSELQGQKQYQLRGMATLEGYREQKAGSSLIKHAEEILRKRGADLLWCNARTSASGYYKKLGFSEQGEVFDTPPVGPHILMYKRIT | 1.9727 s⁻¹ | 100 µM | 1.97 s⁻¹ | –
3 | SEQ ID NO: 300: GAT polypeptide (protein, 13_6D10, GAT polypeptide) MIEVKPINAEDTYEIRHRILRPNQPLEACMYETDSLGGTFHLGGYYRGKLISIASFNQAEHPELEGQKQYQLRGMATLEGYREQKAGSTLIRHAEELLRKKGADLLWCNARTSASGYYKKLGFSEQGEVYDTPPVGPHILMYKKLT | 4.942 s⁻¹ | 650 µM | – | 4.93 s⁻¹
4 | SEQ ID NO: 357: GAT polypeptide (protein, 3B_10C4, GAT polypeptide) MIEVRPINAEDTYEIRHRILRPNQPLEACMYETDLLGGTFHLGGYYRGKLISIASFHQAEHSELEGQKQYQLRGMATLEGYREQKAGSTLIRHAEELLRKKGADLLWCNARTSASGYYKKLGFSEQGEAYDIPPIGPHILMYKKLT | 0.413 s⁻¹ | 1600 µM | – | –
5 | SEQ ID NO: 358: GAT polypeptide (protein, 3B_10G7, GAT polypeptide) MIEVKPINAEDTYEIRHRILRPNQPLEACMYETDLLGGTFHLGGYYRGKLISIASFHQAEHSELEGQKQYQLRGMATLEGYREQKAGSTLIRHAEELLRKKGADLLWCNARTSASGYYKKLGFSEQGGVYDIPPIGPHILMYKKLT | 0.327 s⁻¹ | 1000 µM | – | –
6 | SEQ ID NO: 359: GAT polypeptide (protein, 3B_12B1, GAT polypeptide) MIEVKPINAEDTYEIRHRILRPNQPLEACMYETDLLGGTFHLGGYYRGKLISIASFHQAEHSELEGQKQYQLRGMATLEGYREQKAGSTLIRHAEELLRKKGADLLWCNARTSASGYYKKLGFSEQGEVYDIPPIGPHILMYKKLT | 0.38 s⁻¹ | 1200 µM | – | –
7 | SEQ ID NO: 360: GAT polypeptide (protein, 3B_12D10, GAT polypeptide) MIEVKPINAEDTYEIRHRILRPNQPLEACMYETDLLGGAFHLGGYYRGKLISIASFHPAEHSELEGQKQYQLRGMATLEGYREQKAGSTLIRHAEELLRKKGADLLWCNARISASGYYEKLGFSEQGEVYDIPPIGPHILMYKKLT | 0.09 s⁻¹ | 900 µM | – | –
8 | SEQ ID NO: 361: GAT polypeptide (protein, 3B_2E5, GAT polypeptide) MIEVKPINAEDTYEIRHRILRPNQPLEACMYETDLLGGTFHLGGYYRGKLISIASFHQAEHSELEGQKQYQLRGMATLEGYREQKAGSTLIRHAEELLRKKGADLLWCNARTSASGYYEKLGFSKQGEVYDIPPIGPHILMYKKLT | 0.273 s⁻¹ | 1300 µM | – | –
9 | SEQ ID NO: 362: GAT polypeptide (protein, 3C_10H3, GAT polypeptide) MIEVKPINAEDTYEIRHRILRPNQPLEACMYETDLLGGTFHLGGYYRGKLISIASFHQAEHSELEGQKQYQLRGMATLEGYREQKAGSTLIRHAEELLRKKGADLLWCNARISASGYYKKLGFSEQGGVYDIPPVGPHILMYKKLT | 0.565 s⁻¹ | 1100 µM | – | –
10 | SEQ ID NO: 363: GAT polypeptide (protein, 3C_12H10, GAT polypeptide) MIEVKPINAEDTYEIRHRILRPNQPLEACMYETDLLGGTFHLGGYYRGKLISIASFHQAEHSELEGQKQYQLRGMATLEGYRGQKAGSTLIRHAEELLRKKGADLLWCNARTSASGYYEKLGFSEQGEVYDIPPIGPHILMYKKLT | 0.152 s⁻¹ | 1200 µM | – | –
11 | SEQ ID NO: 364: GAT polypeptide (protein, 3C_9H8, GAT polypeptide) MIEVKPINAEDTYEIRHRILRPNQPLEACMYETDLLGGTFHLGGYYQDRLISIASFHQAEHSELEGQKQYQLRGMATLEGYREQKAGSTLIRYAEELLRKKGADLLWCNARISASGYYEKLGFSEQGEVYDIPPIGPHILMYKKLT | 0.195 s⁻¹ | 1000 µM | – | –
12 | SEQ ID NO: 365: GAT polypeptide (protein, 4A_1B11, GAT polypeptide) MIEVKPINAEDTYEIRHRILRPNQPLEACMYETDLLGGTFHLGGYYRGKLISIASFHQAEHPELEGQKQYQLRGMATLEGYREQKAGSTLIRHAEELLRKKGADLLWCNARTSASGYYEKLGFSEQGEVYDIPPIGPHILMYKKLT | 0.387 s⁻¹ | 1600 µM | – | –
13 | SEQ ID NO: 366: GAT polypeptide (protein, 4A_1C2, GAT polypeptide) MIEVKPINAEDTYEIRHRILRPNQPLEACKYETDLLGGTFHLGGYYRGKLISIASFHQAEHSELEGQKQYQLRGMATLEEYREQKAGSTLIRHAEELLRKKGADLLWCNARTSASGYYKKLGFSEQGEVYDIPPIGPHILMYKKLT | 0.34 s⁻¹ | 1200 µM | – | –
14 | SEQ ID NO: 267: GAT polypeptide (protein, 14_2F11, GAT polypeptide) MIEVKPINAEDTYEIRHRILRPNQPLEACKYETDLLRGAFHLGGYYRGKLVSIASFHQAEHPELEGQKQYQLRGMATLEGYREQKAGSTLIRHAEALLRKKGADLLWCNARTSASGYYKKLGFSEQGEVYDTPPAGPHILMYKKLT | 2.282 s⁻¹ | 1700 µM | – | –
15 | SEQ ID NO: 367: GAT polypeptide (protein, 4B_13E1, GAT polypeptide) MIEVKPINAEDTYEIRHRILRPNQPLEACKYETDLLGGTFHLGGYYRGKLISIASFHQAEHPELEGQKQYQLRGMATLEEYREQKAGSTLIRHAEELLRKKGADLLWCNARISASGYYEKLGFSEQGEVYDIPPIGPHILMYKKLT | 0.62 s⁻¹ | 2000 µM | – | –
16 | SEQ ID NO: 368: GAT polypeptide (protein, 4B_13G10, GAT polypeptide) MIEVKPINAEDTYEIRHRILRPNQPLEACMYETDLLGGTFHLGGYYRGKLISIASFHQAEHSELEGQKQYQLRGMATLEGYREQKAGSTLIRHAEELLRKKGADLLWCNARTSASGYYKKLGFSEQGGVYDIPPIGPYILMYKKLT | 0.582 s⁻¹ | 7600 µM | – | –
17 | SEQ ID NO: 369: GAT polypeptide (protein, 4B_16E1, GAT polypeptide) MIEVKPINAEDTYEIRHRILRPNQPLEACKYETDLLGGTFHLGGYYRGKLISIASFHQAEHSELEGQKQYQLRGMATLEGYREQKAGSTLIRHAEELLRKKGADLLWCNARTSASGYYKKLGFSEQGGVYDIPPIGPHILMYKKLT | 0.283 s⁻¹ | 1000 µM | – | –
18 | SEQ ID NO: 370: GAT polypeptide (protein, 4B_17A1, GAT polypeptide) MIEVKPINAEDTYEIRHRILRPNQPLEACKYETDLLGGTFHLGGYYRGKLISIASFHQAEHPELEGQKQYQLRGMATLEEYREQKAGSTLIRHAEELLRKKGADLLWCNARTSASGYYEKLGFSEQGEVYDIPPIGPHILMYKKLT | 0.318 s⁻¹ | 1100 µM | – | –
19 | SEQ ID NO: 371: GAT polypeptide (protein, 4B_18F11, GAT polypeptide) MIEVNPINAEDTYEIRHRILRPNQPLEACMYETDLLGGTSHLGGYYRGKLISIASFHNAEHSELDGQKQYQLRGMATLEGYREQKAGSTLIRHAEELLRKKGADLLWCNARTSVSGYYEKLGFSEQGEVYDIPPIGPHISMYKKLT | 0.243 s⁻¹ | 1700 µM | – | –
20 | SEQ ID NO: 372: GAT polypeptide (protein, 4B_19C8, GAT polypeptide) MIEVKPINAEDTYEIRHRILRPNQPLEACKYETDLLGGTFHLGGYYRGKLISIASFHQAEHPELEGQKQYQLRGMATLEGYREQKAGSTLIRHAEELLRKKGADLLWCNARTSASGYYKKLGFSEQGGVYDIPPIGPHILMYKKLA | 0.265 s⁻¹ | 1200 µM | – | –
